Experimental data as given in paper PMC8809517, “Cofactor-independent RNA editing by a synthetic S-type PPR protein”.

Columns and labels:
Test in all cases: high-throughput RNA pulldown from lysate on Ni-NTA beads; HRP: 50 mM Tris pH 8, 150 mM NaCl, 1 mM beta-mercaptoethanol, 50 ug/ml BSA, 3 ug/ml yeast RNA, 0.5% heparin; ITC and FP: Tris pH 8, 200 mM KCl, 5% glycerol; MST: 50 mM Tris pH 8, 200 mM NaCl, 1 mM DTT, BSA, heparin, 0.05% Tween 20
Settings in all cases: tags: N-terminal His-eGFP
[1] = molecular target: T1, GFP-9S library array, motif 4 ND N98C;D124P (synthetic construct, N98C;D124P)
T1 chain: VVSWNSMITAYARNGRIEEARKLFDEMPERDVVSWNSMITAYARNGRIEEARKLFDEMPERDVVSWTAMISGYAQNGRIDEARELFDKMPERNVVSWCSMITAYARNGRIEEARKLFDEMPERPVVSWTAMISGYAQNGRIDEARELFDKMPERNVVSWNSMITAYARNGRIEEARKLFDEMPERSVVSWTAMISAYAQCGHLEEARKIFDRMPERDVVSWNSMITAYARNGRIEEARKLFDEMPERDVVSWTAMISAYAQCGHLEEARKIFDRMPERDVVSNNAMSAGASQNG

[2] = molecular target: T2, GFP-9S library array, motif 4 ND N98V;D124I (synthetic construct, N98V;D124I)
T2 chain: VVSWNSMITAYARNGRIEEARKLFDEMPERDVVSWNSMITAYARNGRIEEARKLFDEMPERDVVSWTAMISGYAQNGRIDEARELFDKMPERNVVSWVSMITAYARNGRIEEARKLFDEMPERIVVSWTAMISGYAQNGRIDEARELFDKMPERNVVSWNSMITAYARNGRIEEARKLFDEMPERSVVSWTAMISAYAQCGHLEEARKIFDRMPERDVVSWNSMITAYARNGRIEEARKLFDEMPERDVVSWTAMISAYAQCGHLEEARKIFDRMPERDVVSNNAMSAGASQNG

[3] = molecular target: T3, GFP-9S library array, motif 4 ND N98A;D124N (synthetic construct, N98A;D124N)
T3 chain: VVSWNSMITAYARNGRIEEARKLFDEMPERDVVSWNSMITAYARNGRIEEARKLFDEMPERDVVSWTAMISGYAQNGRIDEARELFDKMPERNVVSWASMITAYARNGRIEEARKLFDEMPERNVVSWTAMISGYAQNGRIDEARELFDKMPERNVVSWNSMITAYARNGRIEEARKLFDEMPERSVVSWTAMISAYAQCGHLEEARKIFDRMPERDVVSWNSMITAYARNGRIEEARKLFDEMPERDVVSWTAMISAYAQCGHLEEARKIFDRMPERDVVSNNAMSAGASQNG

[4] = molecular target: T4, GFP-9S library array, motif 4 ND N98K;D124K (synthetic construct, N98K;D124K)
T4 chain: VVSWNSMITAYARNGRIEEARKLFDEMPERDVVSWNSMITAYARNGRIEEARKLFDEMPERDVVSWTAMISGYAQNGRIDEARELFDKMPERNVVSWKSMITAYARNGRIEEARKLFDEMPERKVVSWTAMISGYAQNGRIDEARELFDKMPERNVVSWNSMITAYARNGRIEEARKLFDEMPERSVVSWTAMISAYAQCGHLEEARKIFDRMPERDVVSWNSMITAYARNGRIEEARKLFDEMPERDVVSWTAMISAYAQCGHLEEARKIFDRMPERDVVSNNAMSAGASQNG

[5] = molecular target: T5, GFP-9S library array, motif 4 ND N98R;D124K (synthetic construct, N98R;D124K)
T5 chain: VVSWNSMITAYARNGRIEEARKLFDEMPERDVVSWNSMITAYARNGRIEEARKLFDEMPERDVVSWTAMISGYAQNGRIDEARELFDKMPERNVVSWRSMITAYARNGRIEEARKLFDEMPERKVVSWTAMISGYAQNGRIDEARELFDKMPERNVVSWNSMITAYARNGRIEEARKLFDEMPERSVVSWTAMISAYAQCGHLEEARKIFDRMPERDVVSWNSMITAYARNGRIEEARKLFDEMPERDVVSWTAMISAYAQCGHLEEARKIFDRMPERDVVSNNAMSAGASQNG

Binder | Kd ([1]; label: 5' Cy5) [nM] | Kd ([2]; label: 5' Cy5) [nM] | Kd ([3]; label: 5' Cy5) [nM] | Kd ([4]; label: 5' Cy5) [nM] | Kd ([5]; label: 5' Cy5) [nM] | Kd ([1]; label: 5' IRDye 800CW) [nM] | Kd ([2]; label: 5' IRDye 800CW) [nM] | Kd ([3]; label: 5' IRDye 800CW) [nM] | Kd ([4]; label: 5' IRDye 800CW) [nM] | Kd ([5]; label: 5' IRDye 800CW) [nM]
AUUAGACGUGA (ssRNA) [Cy5-rpoA-G] | 321 | 163 | 123 | 119 | 161 | – | – | – | – | –
AUUAUACGUGA (ssRNA) [IR-rpoA-U] | – | – | – | – | – | 351 | 205 | 44 | 83.8 | 202
AUUAAACGUGA (ssRNA) [IR-rpoA-A] | – | – | – | – | – | 263 | 384 | 137 | 254 | 420
AUUACACGUGA (ssRNA) [Cy5-rpoA] | 272 | 121 | 66 | 102 | 136 | – | – | – | – | –
